Experiment [1] concerns the target human MHC Class II molecules expressed on cells (human). The experiment can be described thus: cell-based or functional assay.
For experiment [2] the target is unchanged. The experiment can be described thus: flow cytometry on Daudi cells, GAH-FITC detection, no preincubation. (Flow cytometry measures light scatter and fluorescence of single cells or particles in a stream.)
The target is the same in experiment [3]. The experiment can be described thus: flow cytometry on Daudi cells preincubated with the competitor soluble CHO/LAG-3D1D2, GAH-FITC detection.
Experiment [4] has the same target. The experiment can be described thus: competition by flow cytometry on Daudi cells; soluble CHO/LAG-3D1D2 first, then dimeric LAG-3D1D4Ig.
Experiment [5] shares this target. Description: competition by flow cytometry on Daudi cells; soluble CHO/LAG-3D1D2 first, then monomeric LAG-3D1D2Ig.

A value given as a limit tells only on which side of the number the result lay.

Take “LAG-3 D1-D4 Ig (from UniProt P01857 99-330) (Fc fusion)”: the inhibition of the proliferation of clone T154 preincubated with cross-linked LAG-3Ig in experiment [1] was more than 50%. For the same substance, the Mean Fluorescence turned out to be 20.8 in experiment [2] and 8.5 in experiment [3].

In experiment [4], “soluble LAG-3 D1D2 fragment produced by CHO cells (receptor)” came in with a percent inhibition of the binding of dimeric LAG-3D1D4Ig of 58%. Besides, the percent inhibition of the binding of monomeric LAG-3D1D2Ig in experiment [5] was 27%.

“LAG-3 D1D2 Ig (from UniProt P01857 99-330) (Fc fusion)” registered a Mean Fluorescence in experiment [2] of 62.5.

The record behind these values is patent publication USRE38313.
